This is an account of results in patent publication US20200087373A1 (UNIVERSITY OF COPENHAGEN, published 2020).

In general, IC50 refers to the midpoint of a concentration-inhibition curve. A low value points to greater potency.

The target of experiment [1] is T1, human GIP receptor (human, UniProt P48546 22-466).
T1 construct: whole, on cells; also called hGIPR
T1 sequence (looked up): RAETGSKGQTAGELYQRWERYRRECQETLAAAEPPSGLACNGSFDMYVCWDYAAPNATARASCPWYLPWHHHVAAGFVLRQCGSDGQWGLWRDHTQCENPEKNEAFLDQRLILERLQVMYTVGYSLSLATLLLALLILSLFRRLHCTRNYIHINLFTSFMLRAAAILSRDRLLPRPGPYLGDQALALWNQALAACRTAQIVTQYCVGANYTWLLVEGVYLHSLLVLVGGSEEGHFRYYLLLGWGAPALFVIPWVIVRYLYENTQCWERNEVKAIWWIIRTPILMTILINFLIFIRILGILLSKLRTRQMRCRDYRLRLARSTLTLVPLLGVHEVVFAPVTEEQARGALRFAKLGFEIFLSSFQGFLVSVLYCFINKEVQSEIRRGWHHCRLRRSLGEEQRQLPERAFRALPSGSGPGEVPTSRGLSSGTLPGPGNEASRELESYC
The experiment is described as follows: 125I-hGIP competition binding, COS-7 cells expressing hGIPR.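 Note: nonspecific binding taken as radioligand bound by untransfected cells, binding buffer with or without 2% HSA.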
Description: (§1) After incubation, the cells were washed twice in ice-cold binding buffer (+/−2% HSA) and lysed using 200 mM NaOH with 1% SDS for 30 min. Nonspecific binding was determined as the binding of radioactive ligand to untransfected cells.

Experiment [2] addresses T1, human GIP receptor. The experiment in a line: IC50 with 2% HSA over IC50 with 0.1% casein, 125I-hGIP competition, COS-7/hGIPR.
Description: as §1
The target of experiment [3] is T1, human GIP receptor. The experiment in a line: 125I-hGIP competition binding, COS-7/hGIPR, 0.1% casein.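 Note: nonspecific binding defined as radioligand binding measured on untransfected cells.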
Description: as §1
In experiment [4] the target is T1, human GIP receptor. The experiment is described as follows: cell-based or functional assay.
Experiment [5] deals with T1, human GIP receptor. The experiment is described as follows: 125I-hGIP competition binding, COS-7/hGIPR, 2% HSA.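 Note: nonspecific binding defined as radioligand binding to untransfected cells.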
Description: as §1

Ends that are not written are not given here. * marks the point of attachment. C16 diacid = O=C(O)CCCCCCCCCCCCCCC(=O)*

B1: AT177 [hGIP(5-30)NH2[D15K]-C16diacid/15] (peptide)
peptide: TFISDYSIAMK(C16 diacid)KIHQQDFVNWLLAQK-NH2
modifications: N-terminus assumed
SMILES: CC[C@H](C)[C@H](NC(=O)[C@H](CO)NC(=O)[C@H](Cc1ccc(O)cc1)NC(=O)[C@H](CC(=O)O)NC(=O)[C@H](CO)NC(=O)[C@@H](NC(=O)[C@H](Cc1ccccc1)NC(=O)[C@@H](N)[C@@H](C)O)[C@@H](C)CC)C(=O)N[C@@H](C)C(=O)N[C@@H](CCSC)C(=O)N[C@@H](CCCCNC(=O)CCCCCCCCCCCCCCC(=O)O)C(=O)N[C@@H](CCCCN)C(=O)N[C@H](C(=O)N[C@@H](Cc1c[nH]cn1)C(=O)N[C@@H](CCC(N)=O)C(=O)N[C@@H](CCC(N)=O)C(=O)N[C@@H](CC(=O)O)C(=O)N[C@@H](Cc1ccccc1)C(=O)N[C@H](C(=O)N[C@@H](CC(N)=O)C(=O)N[C@@H](Cc1c[nH]c2ccccc12)C(=O)N[C@@H](CC(C)C)C(=O)N[C@@H](CC(C)C)C(=O)N[C@@H](C)C(=O)N[C@@H](CCC(N)=O)C(=O)N[C@@H](CCCCN)C(N)=O)C(C)C)[C@@H](C)CC
On to B1, for which, in experiment [1], the IC50 is 134 nM and the “log IC50” value is -6.9 log M. Moreover, the “Fold change HSA (2%)/Casein (0.1%)” value in experiment [2] is 3.8 fold. In addition, in experiment [3], the IC50 came out at 135 nM and the logIC50 is -6.87 log M. Further, in experiment [4], the “cAMP agonism” value was 59 nM; the “cAMP agonism, EC50 (log)” value was -7 log M; the “cAMP agonism, Emax” value turned out to be 30; the “cAMP antagonism” value is 59 nM. Moreover, the “cAMP antagonism, log” value in experiment [4] was -7.2 log M. In experiment [5], this molecule had an IC50 of 513 nM and a logIC50 of -6.29 log M.

B2: AT179 [hGIP(5-30)NH2[Q19K]-C16diacid/19] (peptide)
peptide: TFISDYSIAMDKIHK(C16 diacid)QDFVNWLLAQK-NH2
modifications: N-terminus assumed
SMILES: CC[C@H](C)[C@H](NC(=O)[C@H](CO)NC(=O)[C@H](Cc1ccc(O)cc1)NC(=O)[C@H](CC(=O)O)NC(=O)[C@H](CO)NC(=O)[C@@H](NC(=O)[C@H](Cc1ccccc1)NC(=O)[C@@H](N)[C@@H](C)O)[C@@H](C)CC)C(=O)N[C@@H](C)C(=O)N[C@@H](CCSC)C(=O)N[C@@H](CC(=O)O)C(=O)N[C@@H](CCCCN)C(=O)N[C@H](C(=O)N[C@@H](Cc1c[nH]cn1)C(=O)N[C@@H](CCCCNC(=O)CCCCCCCCCCCCCCC(=O)O)C(=O)N[C@@H](CCC(N)=O)C(=O)N[C@@H](CC(=O)O)C(=O)N[C@@H](Cc1ccccc1)C(=O)N[C@H](C(=O)N[C@@H](CC(N)=O)C(=O)N[C@@H](Cc1c[nH]c2ccccc12)C(=O)N[C@@H](CC(C)C)C(=O)N[C@@H](CC(C)C)C(=O)N[C@@H](C)C(=O)N[C@@H](CCC(N)=O)C(=O)N[C@@H](CCCCN)C(N)=O)C(C)C)[C@@H](C)CC
B2: in experiment [1], the IC50 stood at 453 nM and the “log IC50” value is -6.3 log M. Moreover, in experiment [2], the “Fold change HSA (2%)/Casein (0.1%)” value was determined as 3.6 fold. In experiment [3], this molecule had an IC50 of 10.5 nM and a logIC50 of -7.98 log M. For the same molecule, in experiment [4], the “cAMP agonism” value was 89 nM; the “cAMP agonism, EC50 (log)” value is -7 log M; the “cAMP agonism, Emax” value was 32; the “cAMP antagonism” value was determined as 89 nM. The “cAMP antagonism, log” value in experiment [4] is -7.1 log M. Further, in experiment [5], the IC50 was 38 nM and the logIC50 is -7.42 log M.

B3: AT181 [hGIP(5-30)NH2[D21K]-C16diacid/21] (peptide)
peptide: TFISDYSIAMDKIHQQK(C16 diacid)FVNWLLAQK-NH2
modifications: N-terminus assumed
SMILES: CC[C@H](C)[C@H](NC(=O)[C@H](CO)NC(=O)[C@H](Cc1ccc(O)cc1)NC(=O)[C@H](CC(=O)O)NC(=O)[C@H](CO)NC(=O)[C@@H](NC(=O)[C@H](Cc1ccccc1)NC(=O)[C@@H](N)[C@@H](C)O)[C@@H](C)CC)C(=O)N[C@@H](C)C(=O)N[C@@H](CCSC)C(=O)N[C@@H](CC(=O)O)C(=O)N[C@@H](CCCCN)C(=O)N[C@H](C(=O)N[C@@H](Cc1c[nH]cn1)C(=O)N[C@@H](CCC(N)=O)C(=O)N[C@@H](CCC(N)=O)C(=O)N[C@@H](CCCCNC(=O)CCCCCCCCCCCCCCC(=O)O)C(=O)N[C@@H](Cc1ccccc1)C(=O)N[C@H](C(=O)N[C@@H](CC(N)=O)C(=O)N[C@@H](Cc1c[nH]c2ccccc12)C(=O)N[C@@H](CC(C)C)C(=O)N[C@@H](CC(C)C)C(=O)N[C@@H](C)C(=O)N[C@@H](CCC(N)=O)C(=O)N[C@@H](CCCCN)C(N)=O)C(C)C)[C@@H](C)CC
B3: in experiment [1], the IC50 amounted to 48 nM and the “log IC50” value was -7.3 log M. Besides, in experiment [2], the “Fold change HSA (2%)/Casein (0.1%)” value came to 5.2 fold. In experiment [3], this molecule had an IC50 of 105 nM and a logIC50 of -7 log M. Besides, in experiment [4], the “cAMP agonism” value worked out at 2 nM; the “cAMP agonism, EC50 (log)” value is -9 log M; the “cAMP agonism, Emax” value is 9; the “cAMP antagonism” value is 16 nM. For the same molecule, the “cAMP antagonism, log” value in experiment [4] was -7.8 log M. Moreover, in experiment [5], the IC50 was determined as 550 nM and the logIC50 is -6.3 log M.

B4: AT178 [hGIP(5-30)NH2[I17K]-C16diacid/17] (peptide)
peptide: TFISDYSIAMDKK(C16 diacid)HQQDFVNWLLAQK-NH2
modifications: N-terminus assumed
SMILES: CC[C@H](C)[C@H](NC(=O)[C@H](CO)NC(=O)[C@H](Cc1ccc(O)cc1)NC(=O)[C@H](CC(=O)O)NC(=O)[C@H](CO)NC(=O)[C@@H](NC(=O)[C@H](Cc1ccccc1)NC(=O)[C@@H](N)[C@@H](C)O)[C@@H](C)CC)C(=O)N[C@@H](C)C(=O)N[C@@H](CCSC)C(=O)N[C@@H](CC(=O)O)C(=O)N[C@@H](CCCCN)C(=O)N[C@@H](CCCCNC(=O)CCCCCCCCCCCCCCC(=O)O)C(=O)N[C@@H](Cc1c[nH]cn1)C(=O)N[C@@H](CCC(N)=O)C(=O)N[C@@H](CCC(N)=O)C(=O)N[C@@H](CC(=O)O)C(=O)N[C@@H](Cc1ccccc1)C(=O)N[C@H](C(=O)N[C@@H](CC(N)=O)C(=O)N[C@@H](Cc1c[nH]c2ccccc12)C(=O)N[C@@H](CC(C)C)C(=O)N[C@@H](CC(C)C)C(=O)N[C@@H](C)C(=O)N[C@@H](CCC(N)=O)C(=O)N[C@@H](CCCCN)C(N)=O)C(C)C
With B4, in experiment [1], the IC50 amounted to 66 nM and the “log IC50” value was -7.2 log M. The “Fold change HSA (2%)/Casein (0.1%)” value in experiment [2] came to 3 fold. In addition, in experiment [3], the IC50 was found to be 66.1 nM and the logIC50 is -7.2 log M. Moreover, in experiment [4], the “cAMP agonism, Emax” value amounted to 0; the “cAMP antagonism” value came to 33 nM; the “cAMP antagonism, log” value was -7.5 log M. In addition, in experiment [5], the IC50 amounted to 195 nM and the logIC50 is -6.7 log M.

B5: AT180 [hGIP(5-30)NH2[Q20K]-C16diacid/20] (peptide)
peptide: TFISDYSIAMDKIHQK(C16 diacid)DFVNWLLAQK-NH2
modifications: N-terminus assumed
SMILES: CC[C@H](C)[C@H](NC(=O)[C@H](CO)NC(=O)[C@H](Cc1ccc(O)cc1)NC(=O)[C@H](CC(=O)O)NC(=O)[C@H](CO)NC(=O)[C@@H](NC(=O)[C@H](Cc1ccccc1)NC(=O)[C@@H](N)[C@@H](C)O)[C@@H](C)CC)C(=O)N[C@@H](C)C(=O)N[C@@H](CCSC)C(=O)N[C@@H](CC(=O)O)C(=O)N[C@@H](CCCCN)C(=O)N[C@H](C(=O)N[C@@H](Cc1c[nH]cn1)C(=O)N[C@@H](CCC(N)=O)C(=O)N[C@@H](CCCCNC(=O)CCCCCCCCCCCCCCC(=O)O)C(=O)N[C@@H](CC(=O)O)C(=O)N[C@@H](Cc1ccccc1)C(=O)N[C@H](C(=O)N[C@@H](CC(N)=O)C(=O)N[C@@H](Cc1c[nH]c2ccccc12)C(=O)N[C@@H](CC(C)C)C(=O)N[C@@H](CC(C)C)C(=O)N[C@@H](C)C(=O)N[C@@H](CCC(N)=O)C(=O)N[C@@H](CCCCN)C(N)=O)C(C)C)[C@@H](C)CC
Take B5: in experiment [1], the IC50 turned out to be 106 nM and the “log IC50” value was -7 log M. Besides, the “Fold change HSA (2%)/Casein (0.1%)” value in experiment [2] is 3.7 fold. In experiment [3], this molecule came in with an IC50 of 457 nM and a logIC50 of -6.3 log M. In addition, in experiment [4], the “cAMP agonism, Emax” value was 0; the “cAMP antagonism” value stood at 37 nM; the “cAMP antagonism, log” value was -7.4 log M. In experiment [5], this molecule yielded a half-inhibitory concentration (IC50) of 1700 nM and a logIC50 of -5.8 log M.
